Source: PMC2567903, “Repetitive N-WASP–Binding Elements of the Enterohemorrhagic Escherichia coli Effector EspFU Synergistically Activate Actin Assembly” (PLoS Pathogens, 2008)

Target: T1, His6-Flag-tagged human N-WASP (human, UniProt O00401 1-505)
T1 construct: also called His-Flag-N-WASP; N-WASP of the recombinant N-WASP/WIP complex
Test: SEC
Conditions: partners not purified

T1 sequence (O00401 whole entry): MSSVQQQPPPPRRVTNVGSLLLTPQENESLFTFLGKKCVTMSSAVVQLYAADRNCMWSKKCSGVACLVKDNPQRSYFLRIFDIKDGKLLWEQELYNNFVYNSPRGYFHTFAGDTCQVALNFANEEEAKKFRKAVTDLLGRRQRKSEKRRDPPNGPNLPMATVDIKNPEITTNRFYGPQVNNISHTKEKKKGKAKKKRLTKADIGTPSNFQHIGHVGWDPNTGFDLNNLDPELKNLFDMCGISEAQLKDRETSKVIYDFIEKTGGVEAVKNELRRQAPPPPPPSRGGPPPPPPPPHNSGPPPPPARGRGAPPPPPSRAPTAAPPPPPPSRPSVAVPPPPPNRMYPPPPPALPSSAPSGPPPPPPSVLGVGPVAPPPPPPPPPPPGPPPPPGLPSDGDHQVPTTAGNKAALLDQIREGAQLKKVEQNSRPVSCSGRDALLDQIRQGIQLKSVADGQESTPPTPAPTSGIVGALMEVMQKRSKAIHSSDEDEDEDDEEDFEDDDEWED

B1: His6-Myc-tagged human WIP (natural protein)
chain: not shown
notes: also called His-Myc-WIP
**Q.** With B1 as the binder, how does the “stoichiometry N” value read?
**A.** 1
